From the supplement of paper PMC10201428
± gives the standard deviation of the averaged measurements.

Assays:
[1] = test system: VchCAST RNA-guided transposition machinery (E. coli BL21(DE3) host, lacZ target); experiment: relative integration efficiency (T-RL orientation) vs wild-type transposon end (log2 (normalized fold change)); transposon end mutated: right end (5 bp flank + 75 bp right end); higher = more efficient transposition
Method in brief: (§1)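 Each barcoded pool, 1549 left-end or 1849 right-end transposon variants in a pUC57 mini-transposon donor, went into E. coli BL21(DE3) with a T7-driven effector plasmid (CRISPR array, tniQ-cas8-cas7-cas6, tnsA-tnsB-tnsC). Plates contained 0.1 mM IPTG and were held at 37°C for 18 h. Input plasmids and genomic integration junctions were PCR-amplified and read by Illumina sequencing, with two biological output replicates and four reference barcodes. Relative integration efficiency is the fold change of output over input barcode abundance, normalised to the reference barcodes and log-transformed.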

[2] = test system: VchCAST RNA-guided transposition machinery (E. coli BL21(DE3) host, lacZ target); experiment: relative integration efficiency (T-LR orientation) vs wild-type transposon end (log2 (normalized fold change)); transposon end mutated: right end (5 bp flank + 75 bp right end); higher = more efficient transposition
Method in brief: as §1

Sequence | relative integration efficiency (log2) [1] | relative integration efficiency (log2) [2]
ACATTTGTTGATACAACCATAAAATGATAATTAATAATTATTTATAATCCACCCATAAATTGATAATTATCAACAAACGCCCGGTCGCGGTACTCTGATCATAGTCAGACCAACATTGCTACGACCC | -2.37 ± 0.16 | 1.24 ± 0.42
ACATTTGTTGATACAACCATAAAATGATAATTAATAATTATTTATAATCCACCCATAAATTGATAATTATCACACCCATAAATTGATATTGCCTCTGATCATAGTCAGACCAACATTGCTACGACCC | -3.09 ± 0.19 | 0.382 ± 0.22
ACATTTGTTGATACAACCATAAAATGATAATTAATAATTATTTATACACCCATAAATTGATAATTATCAACAAACGCCCGGTCGCGGTACTCTGATCATAGTCAGACCAACATTGCTACGACCCGTA | -3.12 ± 0.48 | 0.401 ± 0.042
ACATTTGTTGATACAACCATAAAATGATAATTAATAATTATTTATACACCCATAAATTGATAATTATCACACCCATAAATTGATATTGCCTCTGATCATAGTCAGACCAACATTGCTACGACCCGTA | -3.6 ± 0.11 | -0.465 ± 0.37
ACATTTGTTGATACAACCATAAAATGATAATTAATAATTATTTATCACCCATAAATTGATAATTATCAACAAACGCCCGGTCGCGGTACTCTGATCATAGTCAGACCAACATTGCTACGACCCGTAT | -0.654 ± 0.39 | 2.6 ± 0.053
ACATTTGTTGATACAACCATAAAATGATAATTAATAATTATTTATCACCCATAAATTGATAATTATCACACCCATAAATTGATATTGCCTCTGATCATAGTCAGACCAACATTGCTACGACCCGTAT | -3.21 ± 0.32 | -2.04 ± 0.35
ACATTTGTTGATACAACCATAAAATGATAATTAATAATTATTTCACCCATAAATTGATAATTATCAACAAACGCCCGGTCGCGGTACTCTGATCATAGTCAGACCAACATTGCTACGACCCGTATTC | -2.91 ± 0.43 | 0.365 ± 0.079
ACATTTGTTGATACAACCATAAAATGATAATTAATAATTATTTCACCCATAAATTGATAATTATCACACCCATAAATTGATATTGCCTCTGATCATAGTCAGACCAACATTGCTACGACCCGTATTC | -3.8 ± 0.49 | -2.62 ± 1.1
ACATTTGTTGATACAACCATAAAATGATAATTAATAATTCACCCATAAATTGATAATTATCAACAAACGCCCGGTCGCGGTACTCTGATCATAGTCAGACCAACATTGCTACGACCCGTATTCGCAC | -1.96 ± 0.21 | 1.02 ± 0.13
ACATTTGTTGATACAACCATAAAATGATAATTAATAATTCACCCATAAATTGATAATTATCACACCCATAAATTGATATTGCCTCTGATCATAGTCAGACCAACATTGCTACGACCCGTATTCGCAC | -2.69 ± 0.18 | 1.16 ± 0.069
ACATTTGTTGATACAACCATAAAATGATAATTAATACACCCATAAATTGATAATTATCAACAAACGCCCGGTCGCGGTACTCTGATCATAGTCAGACCAACATTGCTACGACCCGTATTCGCACCGA | -2.6 ± 0.28 | 0.59376 ± 0.00039
ACATTTGTTGATACAACCATAAAATGATAATTAATACACCCATAAATTGATAATTATCACACCCATAAATTGATATTGCCTCTGATCATAGTCAGACCAACATTGCTACGACCCGTATTCGCACCGA | -3.47 ± 0.4 | -0.393 ± 0.24
ACATTTGTTGATACAACCATAAAATGATAATTAATCACCCATAAATTGATAATTATCAACAAACGCCCGGTCGCGGTACTCTGATCATAGTCAGACCAACATTGCTACGACCCGTATTCGCACCGAC | -1.83 ± 0.42 | 1.09 ± 0.077
ACATTTGTTGATACAACCATAAAATGATAATTAATCACCCATAAATTGATAATTATCACACCCATAAATTGATATTGCCTCTGATCATAGTCAGACCAACATTGCTACGACCCGTATTCGCACCGAC | -1.92 ± 0.059 | -0.602 ± 0.3
ACATTTGTTGATACAACCATAAAATGATAATTACAAAACGCCCGGTCGCCGGCGACACAAACGCCCGGTCGCGGTAAGAGGATCATAGTCAGACCAACATTGCTACGACCCGTATTCGCACCGACAC | -2.05 ± 0.22 | 1.07 ± 0.12
ACATTTGTTGATACAACCATAAAATGATAATTACAAAACTAAATTGATAATTATCACACCCATAAATTGATATTGCCTCTGATCATAGTCAGACCAACATTGCTACGACCCGTATTCGCACCGACAC | -2.29 ± 0.15 | -2.92 ± 0.79

Sequence | relative integration efficiency (log2) [1] | relative integration efficiency (log2) [2]
ACATTTGTTGATACAACCATAAAATGATAATTACAAACATAAATTGATAATTATCACACCCATAAATTGATATTGCCTCTGATCATAGTCAGACCAACATTGCTACGACCCGTATTCGCACCGACAC | -0.0203 ± 0.014 | -0.426 ± 0.17
ACATTTGTTGATACAACCATAAAATGATAATTACAACCATAAAATGATAATTATCACAACCATAAAATGATAATTACTCTGATCATAGTCAGACCAACATTGCTACGACCCGTATTCGCACCGACAC | -0.193 ± 0.0064 | -0.536 ± 0.21
ACATTTGTTGATACAACCATAAAATGATAATTACAACCATAAAATGATAATTATCACAACCATAAAGTGATATTTACTCTGATCATAGTCAGACCAACATTGCTACGACCCGTATTCGCACCGACAC | -0.175 ± 0.14 | -0.296 ± 0.44
ACATTTGTTGATACAACCATAAAATGATAATTACAACCATAAAATGATAATTATCACAACCATAAGTTGATATTTTCTCTGATCATAGTCAGACCAACATTGCTACGACCCGTATTCGCACCGACAC | -0.0104 ± 0.27 | -0.17 ± 0.32
ACATTTGTTGATACAACCATAAAATGATAATTACAACCATAAAATGATAATTATCACAACCATATATTGATATCTCCTCTGATCATAGTCAGACCAACATTGCTACGACCCGTATTCGCACCGACAC | -0.16 ± 0.32 | 0.049 ± 0.22
ACATTTGTTGATACAACCATAAAATGATAATTACAACCATAAAATGATAATTATCACACCCATAAATTGATAATTACTCTGATCATAGTCAGACCAACATTGCTACGACCCGTATTCGCACCGACAC | 0.0421 ± 0.03 | -0.0822 ± 0.2
ACATTTGTTGATACAACCATAAAATGATAATTACAACCATAAAATGATAATTATCACACCCATAAATTGATATTGCCTCTGATCATAGTCAGACCAACATTGCTACGACCCGTATTCGCACCGACAC | -0.0716 ± 0.12 | -0.38 ± 0.42
ACATTTGTTGATACAACCATAAAATGATAATTACAACCATAAAATGATAATTATCAGTGGGTATTTAACTATAACGCTCTGATCATAGTCAGACCAACATTGCTACGACCCGTATTCGCACCGACAC | -0.267 ± 0.21 | 2.54 ± 0.061
ACATTTGTTGATACAACCATAAAATGATAATTACAACCATAAAATGATAATTATCATAATTATCATTTTATGGTTGCTCTGATCATAGTCAGACCAACATTGCTACGACCCGTATTCGCACCGACAC | 0.241 ± 0.067 | 1.96 ± 0.16
ACATTTGTTGATACAACCATAAAATGATAATTACAACCATAAAATGATAATTATGATAATTATCATTTTATGGTTGCTCTGATCATAGTCAGACCAACATTGCTACGACCCGTATTCGCACCGACAC | 0.301 ± 0.039 | 1.99 ± 0.068
ACATTTGTTGATACAACCATAAAATGATAATTACAACCATAAAGTGATATTTATCACAACCATAAAATGATAATTACTCTGATCATAGTCAGACCAACATTGCTACGACCCGTATTCGCACCGACAC | -0.258 ± 0.14 | -0.0691 ± 0.38
ACATTTGTTGATACAACCATAAAATGATAATTACAACCATAAAGTGATATTTATCACAACCATAAAGTGATATTTACTCTGATCATAGTCAGACCAACATTGCTACGACCCGTATTCGCACCGACAC | 0.0131 ± 0.077 | -0.228 ± 0.22
ACATTTGTTGATACAACCATAAAATGATAATTACAACCATAAAGTGATATTTATCACAACCATAAGTTGATATTTTCTCTGATCATAGTCAGACCAACATTGCTACGACCCGTATTCGCACCGACAC | -0.0894 ± 0.09 | -0.251 ± 0.14
ACATTTGTTGATACAACCATAAAATGATAATTACAACCATAAAGTGATATTTATCACAACCATATATTGATATCTCCTCTGATCATAGTCAGACCAACATTGCTACGACCCGTATTCGCACCGACAC | -0.331 ± 0.17 | -0.276 ± 0.022
ACATTTGTTGATACAACCATAAAATGATAATTACAACCATAAAGTGATATTTATCACACCCATAAATTGATAATTACTCTGATCATAGTCAGACCAACATTGCTACGACCCGTATTCGCACCGACAC | 0.00575 ± 0.15 | -0.0135 ± 0.3
ACATTTGTTGATACAACCATAAAATGATAATTACAACCATAAAGTGATATTTATCACACCCATAAATTGATATTGCCTCTGATCATAGTCAGACCAACATTGCTACGACCCGTATTCGCACCGACAC | -0.128 ± 0.23 | -0.0327 ± 0.15
